T1: Recombinant NT antigen (N-terminal pro-brain natriuretic peptide, NT-proBNP) (human, UniProt P16860 27-102)
T1 construct: domain: N-terminal pro-brain natriuretic peptide (NT-proBNP); also called recombinant NT protein; N-terminal pro-B-type natriuretic peptide
T1 sequence (looked up): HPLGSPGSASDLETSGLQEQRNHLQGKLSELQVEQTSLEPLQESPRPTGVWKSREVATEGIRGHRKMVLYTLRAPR


Biological target: T1, Recombinant NT antigen (N-terminal …)
Test: indirect ELISA, KD calculated from half-max OD at 4 coating concentrations
Description: Recombinant NT antigen was diluted with coating solution to 1 μg/ml a microplate overnight at 4° C.; which was washed twice with washing solution and patted dry on the next day; with addition of blocking solution (20% BSA+80% PBS) at 120 μL per well at 37° C. for 1 h and patted dry; added the diluted NT monoclonal antibody, 100 μL/well at 37° C. for 30 min (partial supernatant for 1 h); washed 5 times with washing solution and patted dry; added rabbit anti-goat IgG-HRP […] per well at 37° C. for 30 min; washed 5 times with washing solution and patted dry; added color developing solution A (50 μL/well), added color developing solution B (50 μL/well) for 10 min; added stop solution, 50 μL/well; followed by reading the OD value at 450 nm (reference 630 nm) on the microplate reader.
Data from the enzyme immunoassay indirect method were analyzed in the same way as the activity identification, with four gradients of 3 μg/ml, 1.5 μg/ml, 0.75 μg/ml and 0.375 μg/ml for coating; the antibody was diluted from 1000 ng/ml by 2 times to 0.977 ng/ml for loading sample. OD values corresponding to different antibody concentrations at different coating concentrations were obtained. Under the same coating concentration, data were plotted logarithmically with the antibody concentration as the abscissa and the OD value as the ordinate.

Kd [nM]	Binder
2.53	WT 1-3 (antibody) heavy: QVRLQESGPSQVKPAQTLSLTCAISGPSITTYYLDWVRHTPGKPPEWLAQMTKDANAVHQPTIRSRLSITRDTSKSQVFLKLTGVTTEDTAVYYCVKGLIDFGPGLLVTVSSASTTPPKVYPLTSCCGDTSSSIVTLGCLVSSYMPEPVTVTWNSGALTSGVHTFPAILQSSGLYSLSSVVTVPASTSGAQTFICNVAHPASSTKVDKRVEPGCPDPCKHCRCPPPELPGGPSVFIFPPKPKDTLTISGTPEVTCVVVDVGQDDPEVQFSWFVDNVEVRTARTKPREEQFNSTFRVVSALPIQHQDWTGGKEFKCKVHNEGLPAPIVRTISRTKGQAREPQVYVLAPPQEELSKSTLSVTCLVTGFYPDYIAVEWQKNGQPESEDKYGTTTSQLDADGSYFLYSRLRVDKNSWQEGDTYACVVMHEALHNHYTQKSISKPPGK light: QAVLTQPSSVSRSLGQTVSITCSGSSDNVGPGDYVNWFQLIPGSAPKTLIFAATSRIRGVPDRFSGSRSGNTATLTINSLQAEDEADYYCGSANSRNYVWGSGTRLTVLSQPKSAPSVTLFPPSKEELDTNKATVVCLISDFYPGSVNVVWKADGSTINQNVKTTQASKQSNSKYAASSYLTLTGSEWKSKSSYTCEVTHEGSTVTKTVKPSECS
4.78	WT 1-8 (antibody, V domains shown) VH: QVRLQESGPSQVKPAQTLSLTCAISGPSLTTYYVDWVRHTPGKPPEWLAQMTKDANAVHQPTVRSRLSITRDTSKSQVFLKLTGVTTEDTAVYYCVKGIIDWGPGLLVTVSS V domain: QAVLTQPSSVSRSLGQTVSITCSGSSDNVGPGDYINWFQLIPGSAPKTLIFAAYSRVRGVPDRFSGSRSGNTATLTINSLQAEDEADYYCGSPNSRNYVWGSGTRLTVLS
2.61	Mutation 1-2 (antibody, V domains shown) VH: QVRLQESGPSQVKPAQTLSLTCAISGFSITTYYVDWVRHTPGKPPEWLAQMTKDGNAVHQPTLRSRLSITRDTSKSQVFLKLTGVTTEDTAVYYCVRGLIDWGPGLLVTVSS VL: QAVLTQPSSVSRSLGQTVSITCSGSSDQVGFGDYINWFQLIPGSAPKTLIFGATSRVRGVPDRFSGSRSGNTATLTINSLQAEDEADYYCGSANSRGGYVFGSGTRLTVLS
2.47	WT 1-9 (antibody, V domains shown) VH: QVRLQESGPSQVKPAQTLSLTCAISGPSVTTYYIDWVRHTPGKPPEWLAQMTKDANAVHQPTLRSRLSITRDTSKSQVFLKLTGVTTEDTAVYYCVKGLIDWGPGLLVTVSS V domain: QAVLTQPSSVSRSLGQTVSITCSGSSDNVGPGDYVNWFQLIPGSAPKTLIFAAYSRLRGVPDRFSGSRSGNTATLTINSLQAEDEADYYCGSGNSRGGYVWGSGTRLTVLS
1.82	Mutation 1-38 (antibody, V domains shown) VH: QVRLQESGPSQVKPAQTLSLTCAISGFSITTYYVDWVRHTPGKPPEWLAQMTKDGNAVHQPTLRSRLSITRDTSKSQVFLKLTGVTTEDTAVYYCVRGLIDWGPGLLVTVSS VL: QAVLTQPSSVSRSLGQTVSITCSGSSDQVGFGDYINWFQLIPGSAPKTLIFGATSRVRGVPDRFSGSRSGNTATLTINSLQAEDEADYYCGSGNSRGGYVFGSGTRLTVLS
3.27	Mutation 1-16 (antibody, V domains shown) VH: QVRLQESGPSQVKPAQTLSLTCAISGFSVTTYYLDWVRHTPGKPPEWLAQMTKDGNAVHQPTVRSRLSITRDTSKSQVFLKLTGVTTEDTAVYYCVRGVIDWGPGLLVTVSS VL: QAVLTQPSSVSRSLGQTVSITCSGSSDNVGFGDYLNWFQLIPGSAPKTLIFGATSRLRGVPDRFSGSRSGNTATLTINSLQAEDEADYYCGSGNSRGGYVFGSGTRLTVLS
2.22	Mutation 1-42 (antibody, V domains shown) VH: QVRLQESGPSQVKPAQTLSLTCAISGFSVTTYYIDWVRHTPGKPPEWLAQMTKDGNAVHNPTVRSRLSITRDTSKSQVFLKLTGVTTEDTAVYYCVRGIIDWGPGLLVTVSS VL: QAVLTQPSSVSRSLGQTVSITCSGSSDNVGFGDYINWFQLIPGSAPKTLIFGASSRIRGVPDRFSGSRSGNTATLTINSLQAEDEADYYCGSGNSRGGYVFGSGTRLTVLS
0.875	Mutation 1-14 (antibody, V domains shown) VH: QVRLQESGPSQVKPAQTLSLTCAISGFSLTTYYVDWVRHTPGKPPEWLAQMTKDGNAVHQPTLRSRLSITRDTSKSQVFLKLTGVTTEDTAVYYCVRGLIDWGPGLLVTVSS VL: QAVLTQPSSVSRSLGQTVSITCSGSSDQVGFGDYINWFQLIPGSAPKTLIFGAYSRVRGVPDRFSGSRSGNTATLTINSLQAEDEADYYCGSANSRGGYVFGSGTRLTVLS
2.07	Mutation 1-4 (antibody, V domains shown) VH: QVRLQESGPSQVKPAQTLSLTCAISGFSLTTYYLDWVRHTPGKPPEWLAQMTKDGNAVHQPTVRSRLSITRDTSKSQVFLKLTGVTTEDTAVYYCVRGVIDWGPGLLVTVSS VL: QAVLTQPSSVSRSLGQTVSITCSGSSDNVGFGDYLNWFQLIPGSAPKTLIFGAYSRLRGVPDRFSGSRSGNTATLTINSLQAEDEADYYCGSGNSRGGYVFGSGTRLTVLS
2.25	Mutation 1-28 (antibody, V domains shown) VH: QVRLQESGPSQVKPAQTLSLTCAISGFSITTYYLDWVRHTPGKPPEWLAQMTKDGNAVHQPTVRSRLSITRDTSKSQVFLKLTGVTTEDTAVYYCVRGVIDWGPGLLVTVSS VL: QAVLTQPSSVSRSLGQTVSITCSGSSDNVGFGDYLNWFQLIPGSAPKTLIFGASSRLRGVPDRFSGSRSGNTATLTINSLQAEDEADYYCGSGNSRGGYVFGSGTRLTVLS
2.75	Mutation 1-12 (antibody, V domains shown) VH: QVRLQESGPSQVKPAQTLSLTCAISGFSLTTYYIDWVRHTPGKPPEWLAQMTKDGNAVHQPTIRSRLSITRDTSKSQVFLKLTGVTTEDTAVYYCVRGIIDWGPGLLVTVSS VL: QAVLTQPSSVSRSLGQTVSITCSGSSDQVGFGDYVNWFQLIPGSAPKTLIFGAYSRIRGVPDRFSGSRSGNTATLTINSLQAEDEADYYCGSPNSRGGYVFGSGTRLTVLS
2.6	Mutation 1-33 (antibody) heavy: QVRLQESGPSQVKPAQTLSLTCAISGFSVTTYYIDWVRHTPGKPPEWLAQMTKDGNAVHQPTLRSRLSITRDTSKSQVFLKLTGVTTEDTAVYYCVRGLIDFGPGLLVTVSSASTTPPKVYPLTSCCGDTSSSIVTLGCLVSSYMPEPVTVTWNSGALTSGVHTFPAILQSSGLYSLSSVVTVPASTSGAQTFICNVAHPASSTKVDKRVEPGCPDPCKHCRCPPPELPGGPSVFIFPPKPKDTLTISGTPEVTCVVVDVGQDDPEVQFSWFVDNVEVRTARTKPREEQFNSTFRVVSALPIQHQDWTGGKEFKCKVHNEGLPAPIVRTISRTKGQAREPQVYVLAPPQEELSKSTLSVTCLVTGFYPDYIAVEWQKNGQPESEDKYGTTTSQLDADGSYFLYSRLRVDKNSWQEGDTYACVVMHEALHNHYTQKSISKPPGK light: QAVLTQPSSVSRSLGQTVSITCSGSSDQVGFGDYINWFQLIPGSAPKTLIFGAYSRIRGVPDRFSGSRSGNTATLTINSLQAEDEADYYCGSANSRGGYVFGSGTRLTVLSQPKSAPSVTLFPPSKEELDTNKATVVCLISDFYPGSVNVVWKADGSTINQNVKTTQASKQSNSKYAASSYLTLTGSEWKSKSSYTCEVTHEGSTVTKTVKPSECS
1.17	Mutation 1-24 (antibody, V domains shown) VH: QVRLQESGPSQVKPAQTLSLTCAISGFSVTTYYIDWVRHTPGKPPEWLAQMTKDGNAVHQPTIRSRLSITRDTSKSQVFLKLTGVTTEDTAVYYCVRGIIDWGPGLLVTVSS VL: QAVLTQPSSVSRSLGQTVSITCSGSSDQVGFGDYVNWFQLIPGSAPKTLIFGASSRIRGVPDRFSGSRSGNTATLTINSLQAEDEADYYCGSPNSRGGYVFGSGTRLTVLS
1.51	Mutation 1-26 (antibody, V domains shown) VH: QVRLQESGPSQVKPAQTLSLTCAISGFSVTTYYVDWVRHTPGKPPEWLAQMTKDGNAVHQPTLRSRLSITRDTSKSQVFLKLTGVTTEDTAVYYCVRGLIDWGPGLLVTVSS VL: QAVLTQPSSVSRSLGQTVSITCSGSSDQVGFGDYVNWFQLIPGSAPKTLIFGASSRVRGVPDRFSGSRSGNTATLTINSLQAEDEADYYCGSANSRGGYVFGSGTRLTVLS
2.71	Mutation 1-52 (antibody, V domains shown) VH: QVRLQESGPSQVKPAQTLSLTCAISGFSVTTYYLDWVRHTPGKPPEWLAQMTKDGNAVHQPTVRSRLSITRDTSKSQVFLKLTGVTTEDTAVYYCVRGVIDWGPGLLVTVSS VL: QAVLTQPSSVSRSLGQTVSITCSGSSDNVGFGDYLNWFQLIPGSAPKTLIFGAYSRLRGVPDRFSGSRSGNTATLTINSLQAEDEADYYCGSGNSRGGYVFGSGTRLTVLS
2.53	Mutation 1-21 (antibody) heavy: QVRLQESGPSQVKPAQTLSLTCAISGFSLTTYYIDWVRHTPGKPPEWLAQMTKDGNAVHQPTLRSRLSITRDTSKSQVFLKLTGVTTEDTAVYYCVRGLIDFGPGLLVTVSSASTTPPKVYPLTSCCGDTSSSIVTLGCLVSSYMPEPVTVTWNSGALTSGVHTFPAILQSSGLYSLSSVVTVPASTSGAQTFICNVAHPASSTKVDKRVEPGCPDPCKHCRCPPPELPGGPSVFIFPPKPKDTLTISGTPEVTCVVVDVGQDDPEVQFSWFVDNVEVRTARTKPREEQFNSTFRVVSALPIQHQDWTGGKEFKCKVHNEGLPAPIVRTISRTKGQAREPQVYVLAPPQEELSKSTLSVTCLVTGFYPDYIAVEWQKNGQPESEDKYGTTTSQLDADGSYFLYSRLRVDKNSWQEGDTYACVVMHEALHNHYTQKSISKPPGK light: QAVLTQPSSVSRSLGQTVSITCSGSSDQVGFGDYINWFQLIPGSAPKTLIFGAYSRIRGVPDRFSGSRSGNTATLTINSLQAEDEADYYCGSANSRGGYVFGSGTRLTVLSQPKSAPSVTLFPPSKEELDTNKATVVCLISDFYPGSVNVVWKADGSTINQNVKTTQASKQSNSKYAASSYLTLTGSEWKSKSSYTCEVTHEGSTVTKTVKPSECS

From patent US20220025008A1 (FAPON BIOTECH, published 2022)
